# Test results taken from article PMC9058210 (Nature chemical biology, 2022).
# Target: the molecule itself
# Experiment: crystal structure
protein,measurement,value
"SalC (enzyme, Salinispora tropica CNB440) MSEAVERNYDPGDVAIIGASCRFPGARNKEQYWDNLLHGREGVTFYAKDEIEVDETLINSPAYVRATGALDGYDEFDPAVFGVSDRMAAAMTPEHRVFLEASWEVMEDASYDPERVRGEVGVYASTNPQSAALYSSPPDWVSAGPEVMDRSNAWLPDTITSNVLYYLGLTGEAVTVTAVCSGFHYAVHLACQSLLLGQTDMAIAGGVMVRLPQRRGYLWEEGRILSRDGHCRPFDANGTGSVLASGVAVVLLKPLPQAVADRDHIYATVKGTAINNNGISAMAYGLAQPERLSACIAGAMQAGDVAPETVSMYEANGFGMPITDSLEVHAAHLAFGKQSGTCSIGAVKGNIGHAGVVAGGSGAVKAAFALYHRSLPPTINLTELNEEIDFPRTPFVPQLEPAAWQPECGIRRAGITALGGGGYNAHLVLEEPPRPVEREPENRRPRIVTLSALDDAAVSRQRAALSSWLAEHSDARLDDIAYSLNLGRKALPSRWAAVISTRDELLEVLSGDGKSGRVSRFGQERRADLARFRRTEDGLALGSGDEMRDVQALTELAAAWVQGERVNFEVLHADERSHRISLPNYPFARRRFWRTDW",stoichiometry N,4
